Measured values: US10973880B2, “Compositions and methods for treating pulmonary hypertension” (Acceleron Pharma Inc., priority 2016, dated 2021)
Where a chain is given by its changes, count along the chain named. Names and notes keep the numbering of the source.

B1: A64 20-134: ActRIIB-Fc, amino acids 20-134 of SEQ ID NO: 1 with alanine at position 64 (protein)
chain: GRGEAETRECIYYNANWELERTNQSGLERCEGEQDKRLHCYASWANSSGTIELVKKGCWLDDFNCYDRQECVATEENPQVYFCCCEGNFCNERFTHLPEAGGPEVTYEPPPTAPT
modifications: Fc fusion partner without entry
B2: ActRIIB(20-134)-hFc: extracellular domain of human ActRIIB (20-134, R64) fused to a human Fc domain with a minimal linker (SEQ ID NO: 40) (protein)
chain: GRGEAETRECIYYNANWELERTNQSGLERCEGEQDKRLHCYASWRNSSGTIELVKKGCWLDDFNCYDRQECVATEENPQVYFCCCEGNFCNERFTHLPEAGGPEVTYEPPPTAPTGGGTHTCPPCPAPELLGGPSVFLFPPKPKDTLMISRTPEVTCVVVDVSHEDPEVKFNWYVDGVEVHNAKTKPREEQYNSTYRVVSVLTVLHQDWLNGKEYKCKVSNKALPVPIEKTISKAKGQPREPQVYTLPPSREEMTKNQVSLTCLVKGFYPSDIAVEWESNGQPENNYKTTPPVLDSDGSFFLYSKLTVDKSRWQQGNVFSCSVMHEALHNHYTQKSLSLSPGK
B3: ActRIIB(L79D 20-134)-hFc: GDF trap: ActRIIB amino acids 20-134 with L79D substitution fused to human Fc (SEQ ID NO: 46) (protein)
chain: B2 chain with L60D
B4: ActRIIB(L79E 20-134)-hFc: GDF trap form with a glutamate rather than an aspartate at position 79, human Fc fusion (protein)
chain: B2 chain with L60E
B5: ActRIIB(R64K 20-134)-hFc: ActRIIB(20-134)-hFc variant with R64K mutation (protein)
chain: B2 chain with R45K
B6: ActRIIB(R64K 20-129)-hFc: ActRIIB(20-129)-hFc variant with R64K mutation (protein)
chain: GRGEAETRECIYYNANWELERTNQSGLERCEGEQDKRLHCYASWKNSSGTIELVKKGCWLDDFNCYDRQECVATEENPQVYFCCCEGNFCNERFTHLPEAGGPEVTYEPPGGGTHTCPPCPAPELLGGPSVFLFPPKPKDTLMISRTPEVTCVVVDVSHEDPEVKFNWYVDGVEVHNAKTKPREEQYNSTYRVVSVLTVLHQDWLNGKEYKCKVSNKALPVPIEKTISKAKGQPREPQVYTLPPSREEMTKNQVSLTCLVKGFYPSDIAVEWESNGQPENNYKTTPPVLDSDGSFFLYSKLTVDKSRWQQGNVFSCSVMHEALHNHYTQKSLSLSPGK
B7: ActRIIB(P129S, P130R 20-134)-hFc: ActRIIB(20-134)-hFc variant with P129S and P130R mutations (protein)
chain: B2 chain with P110S, P111R
B8: ActRIIB(A24N 20-134)-hFc: ActRIIB(20-134)-hFc variant with A24N mutation (protein)
chain: B2 chain with A5N
B9: ALK4-Fc homodimer: homodimer complex of ALK4-Fc fusion polypeptide (protein)
chain: SGPRGVQALLCACTSCLQANYTCETDGACMVSIFNLDGMEHHVRTCIPKVELVPAGKPFYCLSSEDLRNTHCCYTDYCNRIDLRVPSGHLKEPEHPSMWGPVE
modifications: left off: a dimerising Fc or GST
notes: homodimer complex of ALK4-Fc fusion polypeptide

Columns and labels:
[1] = biological target: T1, GDF11 (Homo sapiens, UniProt O95390); test: ActRIIB-Fc affinity for ligand (description); format: binding; settings: ascertained by Applicants
T1 sequence (O95390 299-407): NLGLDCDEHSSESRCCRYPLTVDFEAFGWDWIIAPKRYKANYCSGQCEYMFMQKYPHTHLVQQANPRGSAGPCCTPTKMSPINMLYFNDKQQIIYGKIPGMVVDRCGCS

[2] = tested on: activin; test: ActRIIB-Fc affinity for ligand (description); format: binding; settings: ascertained by Applicants
[3] = biological target: T2, activin A (Homo sapiens, UniProt P08476); test: A-204 reporter gene assay, pGL3(CAGA)12 luciferase; format: cell-based; settings: A-204 reporter gene assay
T2 sequence (P08476 311-426): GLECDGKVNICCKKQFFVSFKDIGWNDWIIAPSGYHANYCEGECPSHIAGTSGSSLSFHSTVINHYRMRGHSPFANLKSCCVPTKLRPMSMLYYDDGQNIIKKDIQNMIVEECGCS
From the text: An A-204 reporter gene assay was used to evaluate the effects of ActRIIB-Fc proteins and GDF traps on signaling by GDF-11 and activin A. Cell line: human rhabdomyosarcoma (derived from muscle). Reporter vector: pGL3(CAGA)12 (described in Dennler et al, 1998, EMBO 17: 3091-3100). The CAGA12 motif is present in TGF-beta responsive genes (e.g., PAI-1 gene), so this vector is of general use for factors signaling through SMAD2 and 3.
Day 1: Split A-204 cells into 48-well plate.
Day 2: A-204 cells transfected with 10 ug pGL3(CAGA)12 or pGL3(CAGA)12(10 ug)+pRLCMV (1 μg) and Fugene.
Day 3: Add factors (diluted into medium+0.1% BSA). Inhibitors need to be preincubated with factors for 1 hr before adding to cells. Six hrs later, cells were rinsed with PBS and lysed.
This is followed by a luciferase assay.
(§1) In addition, an A-204 Reporter Gene Assay was used to evaluate the effects of ALK4-Fc:ActRIIB-Fc heterodimer and ActRIIB-Fc:ActRIIB-Fc homodimer on signaling by activin A, activin B, GDF11, GDF8, BMP10, and BMP9. Cell line: Human Rhabdomyosarcoma (derived from muscle). Reporter vector: pGL3(CAGA)12 (as described in Dennler et al, 1998, EMBO 17: 3091-3100). The CAGA12 motif is present in TGFβ responsive genes (PAI-1 gene), so this vector is of general use for factors signaling through Smad2 and 3. An exemplary A-204 Reporter Gene Assay is outlined below. • Day 1: Split A-204 cells into 48-well plate. • Day 2: A-204 cells transfected with 10 ug pGL3(CAGA)12 or pGL3(CAGA)12(10 ug)+pRLCMV (1 ug) and Fugene. • Day 3: Add factors (diluted into medium+0.1% BSA). Inhibitors need to be pre-incubated with Factors for about one hr before adding to cells. About six hrs later, cells are rinsed with PBS and then lysed.
(§2) Following the above steps, a Luciferase assay was performed.

[4] = biological target: T3, GDF8 (Homo sapiens, UniProt O14793); test: A-204 reporter gene assay, pGL3(CAGA)12 luciferase; format: cell-based; parameters: host or cells: exogenous factor added to A-204 cells (human rhabdomyosarcoma); settings: A-204 reporter gene assay
T3 sequence (O14793 267-375): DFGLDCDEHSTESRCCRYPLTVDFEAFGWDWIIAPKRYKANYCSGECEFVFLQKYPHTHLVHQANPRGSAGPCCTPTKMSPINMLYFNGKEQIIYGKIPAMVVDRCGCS
From the text: (§3) Day 1: Split A-204 cells into 48-well plate. […]
as §1, §2

[5] = biological target: T2, activin A; test: Biacore assay, receptor captured with anti-hFc antibody; format: binding
Protocol: (§4) Binding of certain ActRIIB-Fc proteins and GDF traps to ligands was tested in a Biacore assay.
(§5) The ActRIIB-Fc variants or wild-type protein were captured onto the system using an anti-hFc antibody. Ligands were injected and flowed over the captured receptor proteins.

[6] = biological target: T3, GDF8; test: as above; format: binding
Protocol: as §4, §5

[7] = biological target: T1, GDF11; test: as above; format: binding
Protocol: as §4, §5

[8] = biological target: T1, GDF11; test: A-204 reporter gene assay, pGL3(CAGA)12 luciferase; format: cell-based; settings: A-204 reporter gene assay
From the text: as §3, §1, §2

[9] = biological target: T2, activin A; test: Biacore-based binding assay, receptor captured with anti-Fc antibody
Protocol: (§6) A Biacore™-based binding assay was used to compare ligand binding selectivity of the ALK4-Fc:ActRIIB-Fc heterodimeric complex described above with that of ActRIIB-Fc and ALK4-Fc homodimer complexes. The ALK4-Fc:ActRIIB-Fc heterodimer, ActRIIB-Fc homodimer, and ALK4-Fc homodimer were independently captured onto the system using an anti-Fc antibody. Ligands were injected and allowed to flow over the captured receptor protein. Results are summarized in the table below, in which ligand off-rates (kd) most indicative of effective ligand traps are denoted in bold font.

[10] = biological target: T3, GDF8; test: as above
Protocol: as §6

[11] = biological target: T4, activin B (Homo sapiens, UniProt P09529); test: as above
T4 sequence (P09529 293-407): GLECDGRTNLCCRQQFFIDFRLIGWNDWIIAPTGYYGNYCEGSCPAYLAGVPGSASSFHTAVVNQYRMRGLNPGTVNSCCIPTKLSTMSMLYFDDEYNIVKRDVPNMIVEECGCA
Protocol: as §6

[12] = biological target: T1, GDF11; test: as above
Protocol: as §6

Row | Molecule | Koff, Activin A [5] [s⁻¹] | Kon, Activin A [5] [M⁻¹ s⁻¹] | Koff, GDF8 [6] [s⁻¹] | Koff, GDF11 [7] [s⁻¹] | further results
1 | B1 |  |  |  |  | affinity for GDF11 [1]: relatively low affinity; affinity for activin [2]: relatively low affinity
2 | B2 | 0.000159 | 5.94e+06 | 3.45e-05 | 0.000113 | affinity for GDF11 [1]: low nanomolar to high picomolar range; inhibition of activin A activity [3]: potent inhibitor; inhibition of GDF-8 activity [4]: potent inhibitor; inhibition of GDF-11 activity [8]: potent inhibitor; affinity for activin [2]: low nanomolar to high picomolar range
3 | B3 |  |  | 0.00083 | 0.000439 | KD, Activin A [5]: Low binding
4 | B4 |  |  | 0.0009 | 0.000274 | KD, Activin A [5]: Low binding
5 | B5 | 0.000325 | 6.82e+06 | 4.71e-05 | 2.41e-05 | 
6 | B6 | 0.000628 | 7.46e+06 | 0.000209 |  | 
7 | B7 | 0.000417 | 5.02e+06 | 0.00018 |  | 
8 | B8 | 0.000346 | 3.34e+06 |  | 6.35e-05 | 
9 | B9 |  |  |  |  | ka, Activin A [9]: 580000 M⁻¹ s⁻¹; kd, Activin A [9]: 0.012 s⁻¹; ka, GDF8 [10]: 130000 M⁻¹ s⁻¹; kd, GDF8 [10]: 0.0019 s⁻¹; KD, Activin B [11]: No binding; ka, GDF11 [12]: 4.8e+06 M⁻¹ s⁻¹; kd, GDF11 [12]: 0.0048 s⁻¹
